From patent US20230391826A1 (SANFORD BURNHAM PREBYS MEDICAL DISCOVERY INSTITUTE, published 2023)
Where two headings read alike, the source gives them in different places. Where no end group is shown, it is not given here. [ ]: non-standard residue; d: D form. The star is where a group is joined. Biotin = O=C1N[C@H]2[C@H](CS[C@H]2CCCCC(=O)*)N1; βAla = NCCC(=O)O; Cam = NC(=O)C*

Assays:
[1] = target: T1, EphA2 endogenously expressed on PC3 prostate cancer cells (UniProt P29317 24-976, limits assumed); test: cell-based or functional assay
[2] = target: T1, EphA2 endogenously expressed on PC3 …; test: cell-based or functional assay; remark: listed apart in the source
[3] = target: T2, EphA2 ligand binding domain (EphA2 LBD), residues 28-200 (UniProt P29317 28-200); test: ITC, soluble EphA2 LBD and peptide
T2 construct: range 28-200; Expressed in E. coli; also called soluble EphA2 LBD; soluble monomeric EphA2 LBD

[4] = target: T2, EphA2 ligand binding domain (EphA2 …); test: ITC, soluble EphA2 LBD and peptide; remark: listed apart in the source
Experimental: (§1) For ITC, all peptides are dissolved in DMSO and both the EphA2 LBD and the peptides are diluted to obtain a final buffer containing 9.5 mM HEPES, pH 7.9, 95 mM NaCl, and 5% DMSO. The experiments are carried out at 296 K (23° C.) using an ITC200 calorimeter (Microcal). Two-microliter aliquots of a peptide solution are injected into the cell containing 205 μL EphA2 LBD. 200-400 μM peptides are titrated into 20-40 μM EphA2 LBD. Experimental data are analyzed using the Origin software package (Microcal). The integrated values for the reaction heats are normalized to the amount of injected peptide after blank subtraction.

[5] = target: T2, EphA2 ligand binding domain (EphA2 …); test: ITC, soluble EphA2 LBD and peptide; remark: listed apart in the source
Experimental: as §1

[6] = target: T3, EphA2 extracellular domain fused to the Fc portion of an antibody (EphA2-Fc); test: ELISA, inhibition of ephrinA5-AP binding to immobilized EphA2-Fc
T3 construct: extracellular domain; Immobilized on the ELISA wells; also called immobilized EphA2

[7] = target: T3, EphA2 extracellular domain fused to the …; test: as above; remark: listed apart in the source
[8] = target: T2, EphA2 ligand binding domain (EphA2 …); test: ITC, EphA2 LBD (200-250 µM) titrated into 10-12.5 µM peptide; single titration shown
[9] = target: T3, EphA2 extracellular domain fused to the …; test: ELISA, inhibition of ephrinA5-AP binding to immobilized EphA2-Fc; representative experiment, triplicates
[10] = target: T1, EphA2 endogenously expressed on PC3 …; test: cell-based or functional assay; remark: listed apart in the source
[11] = target: T2, EphA2 ligand binding domain (EphA2 …); test: ITC, EphA2 LBD (200-250 µM) titrated into 10-12.5 µM peptide; single titration shown; remark: listed apart in the source
[12] = target: T3, EphA2 extracellular domain fused to the …; test: ELISA, inhibition of ephrinA5-AP binding to immobilized EphA2-Fc; representative experiment, triplicates; remark: listed apart in the source
Experimental: FIG. 1A-1C illustrates an example of Potency and selectivity of EphA2-targeting dimeric peptides. […] The graphs show averages ±SD from triplicate measurements from a representative experiment. […] The 10 nM peptide concentration is outlined in red. […] Values are normalized to ephrin binding without peptide. The graphs show averages and SDs from triplicate measurements (with each measurement shown as a dot).

T2 sequence (P29317 other isoform, or with tags, fused parts or gaps limits assumed, form in doubt): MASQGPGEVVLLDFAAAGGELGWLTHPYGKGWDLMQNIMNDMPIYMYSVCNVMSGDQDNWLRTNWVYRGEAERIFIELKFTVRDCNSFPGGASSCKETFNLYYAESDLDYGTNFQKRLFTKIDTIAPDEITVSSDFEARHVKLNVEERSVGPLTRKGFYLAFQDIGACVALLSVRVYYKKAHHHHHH
T3 sequence (P29317 whole entry, the tested form may be a part): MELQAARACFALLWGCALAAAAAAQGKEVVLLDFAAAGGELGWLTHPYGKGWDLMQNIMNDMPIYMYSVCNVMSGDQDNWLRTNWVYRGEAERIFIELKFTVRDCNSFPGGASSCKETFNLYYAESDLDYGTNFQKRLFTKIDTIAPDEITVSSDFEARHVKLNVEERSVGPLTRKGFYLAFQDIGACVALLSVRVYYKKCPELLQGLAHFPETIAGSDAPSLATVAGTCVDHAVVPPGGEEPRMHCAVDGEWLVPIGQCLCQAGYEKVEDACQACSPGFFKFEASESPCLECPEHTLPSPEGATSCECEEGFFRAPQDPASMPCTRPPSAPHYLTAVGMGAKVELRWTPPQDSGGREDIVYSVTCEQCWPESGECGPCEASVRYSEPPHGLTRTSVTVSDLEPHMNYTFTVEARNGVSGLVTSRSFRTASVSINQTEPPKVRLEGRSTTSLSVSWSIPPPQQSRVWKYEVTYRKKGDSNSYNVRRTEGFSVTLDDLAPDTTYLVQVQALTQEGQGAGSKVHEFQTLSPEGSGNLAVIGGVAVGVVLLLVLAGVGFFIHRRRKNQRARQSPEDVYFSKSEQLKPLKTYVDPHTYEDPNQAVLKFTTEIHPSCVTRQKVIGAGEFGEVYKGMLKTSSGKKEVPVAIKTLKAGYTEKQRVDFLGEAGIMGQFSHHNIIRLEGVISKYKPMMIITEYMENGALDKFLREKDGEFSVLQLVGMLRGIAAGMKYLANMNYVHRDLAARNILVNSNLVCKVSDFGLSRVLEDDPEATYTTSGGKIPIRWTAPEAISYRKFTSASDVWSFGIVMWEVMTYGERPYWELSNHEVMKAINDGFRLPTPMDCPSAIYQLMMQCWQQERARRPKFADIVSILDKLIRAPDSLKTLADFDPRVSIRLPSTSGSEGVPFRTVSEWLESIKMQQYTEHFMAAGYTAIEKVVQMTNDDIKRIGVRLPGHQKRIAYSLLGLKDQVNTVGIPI

Binder | Blig (bias factor) [1] | EC50 PY588 [1] [nM] | Emax PY588 [1] | IC50 PAKT [1] [nM] | EC50 pAKT inhib [2] | EC50 pY588 [2] [nM] | Etop pAKT inhib [2] | Etop pY588 [2] | βlig (bias factor) [2] | Kd [3] [nM] | N (binding stoichiometry) [3] | Kd [4] [nM] | N (binding stoichiometry) [4] | -TΔS [5] [kJ/mol] | Kd [5] [nM] | N (binding stoichiometry) [5] | ΔG [5] [kJ/mol] | ΔH [5] [kJ/mol] | IC50 [6] [nM] | IC50 [7] [nM] | also measured
[βAla]WLAYPDSVPYRPKC (also: homodimer, disulfide at 15, other end not in the chain, C-terminally disulfide-linked homodimer made from monomer (19*); also called dimer (2); dimeric peptide (2)) [βA-WLA-YRPKC dimer (C-ter)] | 1.28 | 2.6 | 0.39 normalized to ephrinA1-Fc | 0.22 | 0.82 nM | 5.6 | 0.86 | 0.5 normalized to ephrinA1-Fc | 0.73 | 380 | 2 | 380 | 2 | 81.4 | 380 | 2 | -36.4 | -118 | 0.5 | 0.5 | Kd [8]: 329 nM; IC50 [9]: 0.47 nM
Click dimer (N-ter) (not fully specified; propargylglycine (Pra) at position 1, joined by a click linkage to KN3 of the other chain; C-terminal amide; azido-lysine (KN3) at position 1, joined by a click linkage to Pra of the other chain; C-terminal amide) peptide 1: KAWLAYPDSVPYRPK peptide 2: XGAWLAYPDSVPYRPK | 0.93 | 0.22 | 0.71 normalized to ephrinA1-Fc | 0.024 | 80 pM | 0.64 | 0.87 | 0.98 normalized to ephrinA1-Fc | 0.5 | – | – | – | – | – | – | – | – | – | – | – | –

Second part, led by results:

Blig (bias factor) [1] | EC50 PY588 [1] [nM] | Emax PY588 [1] | IC50 PAKT [1] [nM] | EC50 pAKT inhib [2] | EC50 pY588 [2] [nM] | Etop pAKT inhib [2] | Etop pY588 [2] | βlig (bias factor) [2] | Kd [3] [nM] | N (binding stoichiometry) [3] | Kd [4] [nM] | N (binding stoichiometry) [4] | -TΔS [5] [kJ/mol] | Kd [5] [nM] | N (binding stoichiometry) [5] | ΔG [5] [kJ/mol] | ΔH [5] [kJ/mol] | IC50 [6] [nM] | IC50 [7] [nM] | Binder | also measured
– | – | – | – | 39 nM | – | 0.9 | 0.49 normalized to ephrinA1-Fc | 0.506 | 2900 | 1.7 | 2900 | 1.7 | 68.2 | 2900 | 1.7 | -31.6 | -99.8 | 71 | 71 | [βAla]WLAYPDSVPYGSGC (also: homodimer, disulfide at 15, other end not in the chain, C-terminally disulfide-linked homodimer made from monomer (9*); also called dimer (1); dimeric peptide (1)) [βA-WLA-YGSGC dimer (C-ter)] | agonistic potency (pY588), fold lower than the other dimers with similar configuration [10]: 10 to 60 fold; Kd [11]: 3760 nM; IC50 [9]: 67 nM
0.36 | 0.12 | 0.8 normalized to ephrinA1-Fc | 0.043 | 80 pM | 0.36 | 0.97 | 0.98 normalized to ephrinA1-Fc | 0.51 | – | – | – | – | – | – | – | – | – | – | – | CGAWLAYPDSVPYRPK-NH2 (also: homodimer: N-terminal Cys of two chains joined by disulfide) [CGA-WLA-YRPKam dimer (N-ter)] | –
– | – | – | – | – | – | 1.06 | 0.48 normalized to ephrinA1-Fc | 0.64 | – | – | – | 0.8 | 107 | – | 0.8 | – | -147 | – | – | C(Cam)GAWLAYPDSVPYRPK(Biotin) (also called monomer (10); monomeric peptide (10)) [CcamGA-WLA-YRPK-bio] | IC50 [12]: 22 nM
